Marks after values point to notes of the source that are not given here.
Assays:
Glu107 [1] = test: other (circular dichroism); details: 25 °C; 50 mM NaCl; none stated; 30 µM protein in 50 mM NaCl titrated with 0.05-0.1 M HCl or NaOH; transition between the more structured form (MSF) and the less structured form (LSF) of the double mutant
Glu87 = test: NMR; details: 25 °C, not stated for the titration samples, folded, more structured form (MSF), signals were lost above pH 6.4 because the population of the structured form is low there
Glu38 = test: NMR; details: 25 °C, not stated for the titration samples, folded, more structured form (MSF), signals were lost above pH 6.4 because the population of the structured form is low there
Glu68 = test: NMR; details: 25 °C, not stated for the titration samples, folded, more structured form (MSF), signals were lost above pH 6.4 because the population of the structured form is low there
Glu107 [2] = test: NMR; details: 25 °C, not stated for the titration samples, folded, more structured form (MSF), signals were lost above pH 6.4 because the population of the structured form is low there
Glu83 = test: NMR; details: 25 °C, not stated for the titration samples, folded, more structured form (MSF), signals were lost above pH 6.4 because the population of the structured form is low there
Glu28 = test: NMR; details: 25 °C, not stated for the titration samples, folded, more structured form (MSF), signals were lost above pH 6.4 because the population of the structured form is low there
Glu104 = test: NMR; details: 25 °C, not stated for the titration samples, folded, more structured form (MSF), signals were lost above pH 6.4 because the population of the structured form is low there
Glu63 = test: NMR; details: 25 °C, not stated for the titration samples, folded, more structured form (MSF), signals were lost above pH 6.4 because the population of the structured form is low there
Glu105 = test: NMR; details: 25 °C, not stated for the titration samples, folded, more structured form (MSF), signals were lost above pH 6.4 because the population of the structured form is low there

Row | Substance | pKa (Glu107 [1]) | pKa (Glu87) | pKa (Glu38) | pKa (Glu68) | pKa (Glu107 [2]) | pKa (Glu83) | pKa (Glu28) | pKa (Glu104) | pKa (Glu63) | pKa (Glu105)
1 | DraK histidine kinase, extracellular sensor domain (ESD), E83L/E105L double mutant (Streptomyces coelicolor A3(2); E83L;E105L) | 8.1* | – | – | – | – | – | – | – | – | –
2 | DraK histidine kinase, extracellular sensor domain (ESD), wild type (Streptomyces coelicolor A3(2)) | – | 3.7 | 4.3 | 4.5 | above 6.4 | 5.3 | 3.9 | 4.6 | 4.5 | 5.5
